From article PMC9800336, “Exploration of the cysteine reactivity of human inducible Hsp70 and cognate Hsc70” (The Journal of Biological Chemistry, 2022)
Ends that are not written are not given here. * marks the point of attachment. FITC = O=C1OC2(c3ccc(O)cc3Oc3cc(O)ccc32)c2ccc(NC(=S)*)cc21

Experiments:
Conditions in all cases: both partners purified
[1] = target: T1, disulfide-bonded hHsp70-C17/C574/C603 (human, UniProt P0DMV8 1-641, C267S | C306S, intramolecular disulfide bond between Cys574 and Cys603); assay: fluorescence polarisation; steady state; increasing concentrations of Hsp70 with 20 nM FAR peptide, 60-min incubation, RT, buffer B (50 mM Tris-HCl pH 7.5, 100 mM KCl, 5 mM MgCl2); single site-binding model
T1 construct: human HspA1A (hHsp70), UniProtKB P0DMV8, full length with C267S/C306S; also called -S-S-; disulfide-bonded form of full length hHsp70
T1 sequence (P0DMV8 whole entry C267S/C306S): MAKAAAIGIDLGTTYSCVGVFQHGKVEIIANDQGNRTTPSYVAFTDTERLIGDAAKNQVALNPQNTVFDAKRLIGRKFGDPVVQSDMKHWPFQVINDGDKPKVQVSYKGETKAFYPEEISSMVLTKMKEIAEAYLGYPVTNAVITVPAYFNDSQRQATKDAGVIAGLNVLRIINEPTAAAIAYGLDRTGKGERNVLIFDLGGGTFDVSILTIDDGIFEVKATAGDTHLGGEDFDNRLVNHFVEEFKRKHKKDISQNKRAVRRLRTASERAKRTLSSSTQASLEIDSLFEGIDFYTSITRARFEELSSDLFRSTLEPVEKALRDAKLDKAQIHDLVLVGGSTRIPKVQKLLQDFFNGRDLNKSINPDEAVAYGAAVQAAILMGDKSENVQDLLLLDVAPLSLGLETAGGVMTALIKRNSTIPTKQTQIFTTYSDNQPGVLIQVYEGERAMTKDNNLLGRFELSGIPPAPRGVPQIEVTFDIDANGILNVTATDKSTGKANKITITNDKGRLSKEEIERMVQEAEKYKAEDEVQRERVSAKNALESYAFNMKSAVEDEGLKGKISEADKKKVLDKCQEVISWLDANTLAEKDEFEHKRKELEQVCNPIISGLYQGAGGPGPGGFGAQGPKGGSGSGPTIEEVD

[2] = target: T2, hHsp70-C17/C574/C603 (hHsp70 C267S/C306S), untreated control (human, UniProt P0DMV8 1-641, C267S | C306S); assay: as above
T2 construct: human HspA1A (hHsp70), UniProtKB P0DMV8, full length with C267S/C306S; also called unmodified form
T2 sequence (P0DMV8 whole entry C267S/C306S): as above

[3] = target: T3, WT hHsp70 (human HspA1A) (human, UniProt P0DMV8 1-641); assay: fluorescence polarisation; kinetic; 20 nM FAR mixed with 10 μM hHsp70 in the presence of 1 mM ADP, RT, FP recorded against time; diamide or diamide with GSH added at 60 min, DTT at 120 min
T3 construct: human HspA1A (hHsp70), UniProtKB P0DMV8, full length; also called HspA1A/B; human inducible Hsp70
T3 sequence (P0DMV8 whole entry): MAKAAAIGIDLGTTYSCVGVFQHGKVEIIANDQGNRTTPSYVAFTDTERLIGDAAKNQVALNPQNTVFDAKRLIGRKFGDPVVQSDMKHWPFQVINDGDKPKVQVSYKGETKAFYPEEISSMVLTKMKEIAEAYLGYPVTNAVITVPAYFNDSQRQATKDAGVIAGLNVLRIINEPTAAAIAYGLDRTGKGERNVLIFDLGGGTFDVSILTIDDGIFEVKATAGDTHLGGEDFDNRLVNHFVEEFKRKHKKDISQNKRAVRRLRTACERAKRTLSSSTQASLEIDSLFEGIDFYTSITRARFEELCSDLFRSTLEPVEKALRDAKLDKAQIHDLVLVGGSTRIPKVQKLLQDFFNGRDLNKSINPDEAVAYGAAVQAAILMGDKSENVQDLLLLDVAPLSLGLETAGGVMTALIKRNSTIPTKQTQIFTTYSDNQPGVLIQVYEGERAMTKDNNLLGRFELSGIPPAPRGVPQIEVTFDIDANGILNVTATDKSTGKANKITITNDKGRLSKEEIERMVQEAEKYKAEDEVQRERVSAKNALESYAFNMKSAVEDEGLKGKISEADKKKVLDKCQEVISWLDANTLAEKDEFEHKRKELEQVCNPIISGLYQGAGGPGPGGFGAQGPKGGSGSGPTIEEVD

Measured: binding result

B1: FITC-ALLLSAPRR peptide (peptide)
peptide: {FITC}-ALLLSAPRR
notes: fluorescently labelled model substrate peptide of Hsp70; also called FAR; FAR peptide
binds: all assays above
